Measurements taken from the nanobody polyreactivity screen of Harvey et al. (2022).

test: yeast display, Sf9 membrane polyspecificity reagent, FACS + sequencing; frameworks hold sequencing errors
In short: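 Galactose-induced (36–48 hours) yeast carrying a synthetic nanobody display library were exposed to 10% biotinylated, detergent-solubilized Sf9 membrane reagent at 4 °C for 1 hour. FACS followed streptavidin microbead enrichment, using low and high (top ~1%) gates for expression (anti-HA) and reagent binding (streptavidin). Colony PCR, MiSeq 2 × 250 sequencing and CDR-length filtering followed. Labels for polyreactivity reflect the gate of origin.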

Sequence	polyreactivity (PSR sort gate)
QVQLVESGGGLVQAGGSLRLSCAASGRTFSTYAMGWYRQAPGKERELVAAITRRGGSTYYADSVKGRFTISRDNAKNTVYLQMNSLKPEDTAVYYCARENPGDSYYDYWGQGTQVTVSS	low polyreactivity
QVQLVESGGGLVQAGVSLRLSCAASMGWYRQAPGKERELVAAITRGGTTYYADSVQGRFTISRDNAKNTVYLQMNSLKPEDTAVYYGAKAGPGFLYDHWGQGTQVTVSS	high polyreactivity
QVHLVESGGGLVQAGGSLRLSCAASGGIFYAYDMGWYRQAPGKERELVAAITWTGGTTYYADSVKGRFTISRDNAKKTVYLLMNSLKPEDTAVYYCAADDGTNSTARDKDDYYYWGQGTEVTVSS	low polyreactivity
QVHLVESGGGLVQAGGSLRLSCAASGLTFYWYTMGWYRQAPGKERELVAAITSGGSTSYADSVKGRFTISRDNAKNTVYLQMNSLKPEDTAVYYCAADGQVSGYDYWGQGTQVTVSS	high polyreactivity
QVQLVESAGGLVQAGGSLRLSCAASGFIFFGNAMGWYRQAPGKERALVAVITWSGGSTYADSVKGRFTISRDNAKNPVYLQMNSLKPEDTAVYYSAADQQTWWQYSLINEYDYWGQGTQVTVTS	low polyreactivity
QVQLVESGGGLVQAGGSLRLSCAASGIIYAANPMGWYRQAPGKERELVAAISKNGGITYYADSVKGRFTISRDNAKNTVYLQMNSLKPEDTAVYYCAARWRQTRRYYYWGQGTQVTVSS	high polyreactivity
QVHLVESGVGLVQAGGSLRLSCASSGSTFYAYAMGWYRQAPGKERELVAAIDSGGSTYYADSVKGRFTISRDNAKNTVYLPMNILKPEDSAVYYCAVRHRYTRAYWGRDYWGQGTKVTVSS	low polyreactivity
QVQLVESGGGLVQAGGSLRLSCAASGNTFGNYGMGWYRQAPGKEREFVAAITSRGTSTYYADSVKGRFTISRDNAKNTVYLQMNSLKPEDTAVYYCNARPRYKYPRYDYWVQGTQVTVSS	high polyreactivity
QVQLVESGGGLVQAGGSLRLSCAASGFTFAVYVMGWYRQAPGKERELVATISFSVGSTYYADSVKGRFTISRDNAKNTVYLQMNSLKPEDTAVYDCNADPPPEYYPDKDNYWGQGTQVTVSS	low polyreactivity
QVQLVESGGGLVQAGCSLRLSCAASGRIITRYPMGWYRQAPGKERELVAAISYGGGGTYYADSVKGRFTISRDNAKNTVYLQMNSLKPDDTAVYYCATDDPLSQINEQGMDYWGQGTQVTVSS	low polyreactivity
QVQLVESVGGLVQAGGSLRLSCAASGITFRRYAMGWYRQAPGKERELVATIRNSGGGTYYADSVKGRFTISRDNAKNTVYLQMNSLKPEDTAVYYCAAELYFTYYYWGQGTQVTVSS	high polyreactivity
QVQLVESGGGLVQAGGSLRLSCAASGSTFYPYLIGWYRQAPGKERELLPAISGGGRTYYADSVKGRFTISRDNAKNTVYLQMNSLKPEDTAVYFCAARYTTYSGRGTRPAGIRYDYWGQGTQVTVSS	high polyreactivity
QVQLVESGGGLVQAGGSLRLSCAASGITLYANAMGWYREAPGKERELVAVISKGSGSTYYPDSVKGRFTISRDNAKNTVYLQMNSLKPEDTAVYYCAAGRKGSMYYWGQGTQVTVSS	high polyreactivity
QVQLVESGGGLVQAGGSLRLSCAASGGTFSYYAMGWYRQAPGKERELVAAITYSGDRTYYADSVKGRFTISRDNAKNTVYLQMNSLKPEDTAVYYCNAVRGSWYGYYYWGQGTQVTVSS	high polyreactivity
QVQLVESGGGLVQAGGSLRLSCAASGYNFDGYAMGWYRQAPGKERELVAAINSGGGTYYADSVKGRFTISRDNAKNTVYLQMNSLKPEDTAVYYCSKYTYDYWGQGTQVTVSS	low polyreactivity
QVQHVESGGGLVQAGGSLRLSCAASGRTFYRNAMGWYRPAPGKERELVAAISWSGGRTFYADSVKGRFTISRDNAKNTVYLQMNSLKPEDTAVYYCAKTYTTPGYYRYDYWGKGTQVTVSS	high polyreactivity

Sequence	polyreactivity (PSR sort gate)
QVQLVESGGGLVQAGGSLRLSCAASGSIFGKYAMGWYRQAPGKERELVAAITGRGASTYYADSVKGRFTISRDNAKNTVYLQMNSLKPVDTAVYYCAARASWYYVYPYDYWGQGTQVTVSS	low polyreactivity
QVQLVESGGGLVPAGGSLRLSCASSGRTFYPYAMGRYRQAPGKERELVAAITTSGGRTYYADSVKGRFTISRDNAKNTVYLQMNSLKPEDTGVYYCAKVYREGEGKFDYWGQGTQVTVSS	high polyreactivity
QVQLVESGGGLVQAGGSLRLSCAASGRIFRWYAMGWYRQAPGKERELVASISRGGSTYYADSVKGRFTISRDNAKNTVYLQMNSLKPEDTAVYYCNVKYKYDRAYGEYDYWGQGTQVTVSS	high polyreactivity
QVQIVESGVGLVQAGGSLRLSCAASGRIVSSKVMGLYRQAAGKERELVAAITSGGSTYYADSVKGRFTISRDNAKNTVYLQMNSLKPEDTAVYYCAASYWVLRYRYDYWGQGTQVTVSS	high polyreactivity
QVQLVESGGGLVQAGGSLRLTCAASGRIFGKYAKGRYRQAAGKEREFVATITRGGGTTSYADSVKGRFTNSRDNAMNTVYLQMNSLKPVDTAVYYCATRYFRGSYRNGDYWGQGTQVTVSS	high polyreactivity
QVQLVESGGGLVQAGGSLRLSCAASGSIFVSNAMGWYRQAPGKERELVASISQDGGSTYYADSVKGRFTISRDNAKNTVYLQMNSLKPEDTADYYCAAKAEYYYYNGGTTYLVRYYYWGQGTQVTVSS	low polyreactivity
QVQLVESGGGLVQAGGSLRLSSAASGSTFAEYAMGWYRQAPGKERELVAAIRWSGGSTSYADSVKGRFTISRDNAKNTVYLQMNSLKPEDTAVYYCAAERFWYDGEVKLYVLSYYWGQGTQVTVSS	low polyreactivity
QVQLVESGGGLVQAGGSLRLSCAASVSIFYVYARGCYRQAPGKERELVAAITSSGTTNYADSVKGRFTISRDNAKNTVYLQMNSLKPEDTAVYYCAADPDSGQVPFDYWGQGTHVTVSS	low polyreactivity
QVQLVESGGGLVQAGGSLRLSCAASGSIFRGNALGWYRQAPGKERELVAAITGSGGNTYYADSVKGRFTISRDNAKNTVYLQMNSLKPEDTAVYYCNAQRYRVVVYNSHGWQTRNYWGQGTQVTVSS	low polyreactivity
QVQLVESGGGLVQAGGSLRLSCAASGNTFAGNAMGWYRQAPGKERELVAAISRSGVTTRYADSVKGRFTISRDNAKNTVYLQMNSLKPEDTAVYYCNADPRLRQTRDYWGQGTQVTVSS	high polyreactivity
QVQVEDTGGGLVQEGGSHRLSCAASGRTFYYYTMGRYRQPPVKEREFVAAITISGARTYYADSVKGRFTISRDNAKNTVYLQMNSLKPEDTPVYYCAARRRYRSRVTTVGYNYWGQGTQVTVSS	high polyreactivity
QLQLVESGGGLVQAGGSLRLSCAASGSIFDVYTMGWYRQAPGKERELVAAINTCGGSTYYADSVKGRFTISRDNAKNTVYLQMNSLKPEDTAVYYCAASVYHYGPLYYWGQGTQVTVSS	low polyreactivity
QVQLVESGGGLVQAGGSLRLSCAASGSTFIYYAMGWNRQAPGKERELVDSISRSGGSTYYADSVKGRFTISRDNAKNTVYLQMNSLKPEDTAVYYCARAYRSSFNYWGQGTQVTVSS	high polyreactivity
QVQLVESGGGLVQAGGSLRLSCAASGFTFYYYAMGWYRQAPGKERELVAAISRSGGSTYYADSVKGRFTISRDNAKNTVYLQMNSLKQEDTAVYYCAARRLVGAERPGYDDWGQGTQVTVSS	high polyreactivity
QVQLVESGGGLVQAGGSLRLSCAASGRIFYLYAMGWYRQAPGKERELVAAITGGGSTSYADSVKGRFTISRDNAKNTVYLQMNSLKPEDTAVYYCATDRLTYTKYGYWGQGTQVTVSS	low polyreactivity
QVQLVESGGGLVQAGGSLRLRCAASGRIIFRNAMVWYRQAHGKERELVAAITRGGGSTYYADSVKGRFTISRDNAKNTVYLQMNSLKPEDTAVYYCAAGACYSLYSAYDYWGQGTQVTVSS	low polyreactivity
